Substrate in data set [1]: CC(=O)SCCNC(=O)CCNC(=O)[C@H](O)C(C)(C)COP(=O)(O)OP(=O)(O)OC[C@H]1O[C@@H](n2cnc3c(N)ncnc32)[C@H](O)[C@@H]1OP(=O)(O)O
The data set can be described thus: purified protein. To be noted: pH 7.5; 25.0 °C.

Substrate in data set [2]: CC(C)C(=O)C(=O)O
The data set can be described thus: purified protein. To be noted: pH 7.5; 25.0 °C.

B1: MtIPMS (α-isopropylmalate synthase from Mycobacterium tuberculosis) (Mycobacterium tuberculosis H37Rv) (protein)
chain: MTTSESPDAYTESFGAHTIVKPAGPPRVGQPSWNPQRASSMPVNRYRPFAEEVEPIRLRNRTWPDRVIDRAPLWCAVDLRDGNQALIDPMSPARKRRMFDLLVRMGYKEIEVGFPSASQTDFDFVREIIEQGAIPDDVTIQVLTQCRPELIERTFQACSGAPRAIVHFYNSTSILQRRVVFRANRAEVQAIATDGARKCVEQAAKYPGTQWRFEYSPESYTGTELEYAKQVCDAVGEVIAPTPERPIIFNLPATVEMTTPNVYADSIEWMSRNLANRESVILSLHPHNDRGTAVAAAELGFAAGADRIEGCLFGNGERTGNVCLVTLGLNLFSRGVDPQIDFSNIDEIRRTVEYCNQLPVHERHPYGGDLVYTAFSGSHQDAINKGLDAMKLDADAADCDVDDMLWQVPYLPIDPRDVGRTYEAVIRVNSQSGKGGVAYIMKTDHGLSLPRRLQIEFSQVIQKIAEGTAGEGGEVSPKEMWDAFAEEYLAPVRPLERIRQHVDAADDDGGTTSITATVKINGVETEISGSGNGPLAAFVHALADVGFDVAVLDYYEHAMSAGDDAQAAAYVEASVTIASPAQPGEAGRHASDPVTIASPAQPGEAGRHASDPVTSKTVWGVGIAPSITTASLRAVVSAVNRAAR
On to B1, for which, in data set [1], the Michaelis constant (Km) amounted to 42 ± 12 µM and the specificity constant (kcat/Km) turned out to be 80000 ± 20000 M⁻¹ s⁻¹. In data set [2], the Km is 6.4 ± 1.4 µM and the catalytic efficiency (kcat/Km) worked out at 500000 ± 130000 M⁻¹ s⁻¹.

The term Km denotes the substrate concentration at which the rate is half of its maximum. The term kcat/Km denotes the second-order rate constant that governs catalysis at low substrate concentration.

Source of the values: paper PMC4025573.
